Reference: PMC2894972, “Protein-Protein Interaction Antagonists as Novel Inhibitors of Non-Canonical Polyubiquitylation” (PLoS ONE, 2010)

Target: T1, Ubc13 (human, UniProt P61088 1-152)
T1 construct: Ubc13, ubiquitin-conjugating enzyme (E2), human; also called purified Ubc13; source: recombinant, purified
T1 sequence (looked up): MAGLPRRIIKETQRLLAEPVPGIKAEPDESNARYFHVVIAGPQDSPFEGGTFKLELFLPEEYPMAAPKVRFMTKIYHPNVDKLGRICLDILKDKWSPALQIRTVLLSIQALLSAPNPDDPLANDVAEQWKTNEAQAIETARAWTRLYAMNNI
Experiment: SPR; Uev1 immobilised on a Biacore CM5 chip (1179,1 RU); Ubc13 in the mobile phase; 10 mM HEPES, 0.15 M NaCl, pH 7.4; Biacore T100
Conditions: both partners purified

B1: Uev1 (natural protein)
chain: not shown
notes: Uev1, ubiquitin-conjugating enzyme variant 1, human; also called recombinant Uev1; source: recombinant, purified
  Kd: 1 nM
